Source: US20250289897A1, “LEPTIN RECEPTOR AGONISTIC ANTIBODY AS MONO OR COMBO THERAPIES TO TREAT OBESITY” (ELI LILLY AND COMPANY, priority 2024, published 2025)

Biological target: T1, human LEPR (Homo sapiens, UniProt P48357)
T1 construct: introducing DNA plasmids encoding full-length LEPR of different species and STAT3-luciferase reporter gene into HEK293 cells; expressed in transfected cells; host or cells: HEK293 (HEK293-STAT3Luc-hLepR1)
T1 sequence (P48357 22-1165): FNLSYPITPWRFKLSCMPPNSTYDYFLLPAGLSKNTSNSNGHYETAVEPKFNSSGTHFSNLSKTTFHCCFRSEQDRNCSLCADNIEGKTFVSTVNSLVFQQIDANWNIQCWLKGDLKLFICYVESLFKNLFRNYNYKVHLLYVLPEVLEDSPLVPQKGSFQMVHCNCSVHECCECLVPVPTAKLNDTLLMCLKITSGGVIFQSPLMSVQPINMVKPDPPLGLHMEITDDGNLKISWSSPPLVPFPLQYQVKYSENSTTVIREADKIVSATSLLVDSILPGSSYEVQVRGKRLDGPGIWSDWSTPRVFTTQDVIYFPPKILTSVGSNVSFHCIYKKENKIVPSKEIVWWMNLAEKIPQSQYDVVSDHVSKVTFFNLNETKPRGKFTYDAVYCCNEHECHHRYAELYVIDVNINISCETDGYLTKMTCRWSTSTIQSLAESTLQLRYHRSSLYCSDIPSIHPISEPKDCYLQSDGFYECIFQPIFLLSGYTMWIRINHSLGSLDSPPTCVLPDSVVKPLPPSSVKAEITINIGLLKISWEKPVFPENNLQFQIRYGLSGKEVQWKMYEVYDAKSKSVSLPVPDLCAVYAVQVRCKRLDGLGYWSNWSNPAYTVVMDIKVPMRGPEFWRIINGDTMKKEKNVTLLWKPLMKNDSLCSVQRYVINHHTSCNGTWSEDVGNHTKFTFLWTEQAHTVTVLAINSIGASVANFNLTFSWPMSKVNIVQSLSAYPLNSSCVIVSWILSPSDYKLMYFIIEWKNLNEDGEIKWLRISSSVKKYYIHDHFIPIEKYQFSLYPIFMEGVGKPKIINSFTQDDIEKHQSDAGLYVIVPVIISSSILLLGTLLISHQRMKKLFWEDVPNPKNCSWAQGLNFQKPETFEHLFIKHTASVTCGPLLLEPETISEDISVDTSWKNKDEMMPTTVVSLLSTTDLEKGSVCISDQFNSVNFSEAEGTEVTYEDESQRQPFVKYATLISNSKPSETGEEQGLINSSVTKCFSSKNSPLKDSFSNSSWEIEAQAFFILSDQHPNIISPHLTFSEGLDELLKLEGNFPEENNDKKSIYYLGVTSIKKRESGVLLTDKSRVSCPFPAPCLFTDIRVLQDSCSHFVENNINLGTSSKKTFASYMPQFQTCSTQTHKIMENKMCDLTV
Experiment: pERK induction (AlphaLISA p-ERK1/2) in HEK293-STAT3Luc-hLepR1 cells
Format: cell-based
Protocol: Antibodies were tested for the ability to induce phosphorylation of extracellular-signal-related kinase (pERK) in HEK293-STAT3Luc-hLepR1 cells. To measure pERK induction, cells were first cultured overnight at 37° C. in 96-well plate with DMEM medium supplemented with 10% FBS. On day 2, medium was removed, cells were washed in serum-free DMEM and incubated for an additional 24-hour in serum-free DMEM. On day 3, medium was removed and 1:4 series dilutions of antibodies A, B, and C with top concentration of 200nM in serum-free DMEM were added to the cells for 15 minutes. Testing was run in duplicates. Recombinant human leptin protein (SEQ ID NO:27) was used as a positive control in this assay. An IgGI with Fc modifications to ablate binding to Fcγ receptors was used as a negative control (IgG isotype control). Phospho-ERK1/2 was assessed in the whole cell lysate by measuring the amplified luminescence with AlphaLISA SureFire Ultra p-ERK1/2 (Thr202/Tyr204) kit (PerkinElmer, #ALSU-PERK-A-HV). Data was calculated using 4 parameters sigmoidal fit of the data (SigmaPlot software). Results, expressed in Table 12 are averaged EC50 of two independent experiments.

human leptin: recombinant human leptin protein (SEQ ID NO:27), positive control
Baseline RLU (pERK AlphaLISA): 29762.5 RLU
Maximum RLU (pERK AlphaLISA): 137565 RLU
EC50 (pERK, 15 minutes, average of two independent experiments, read-out: EC50 (nM) ± STDEV): 1.07 nM
